The source of these data is patent US20140271457A1 (AbbVie / Abbott, published 2014).

Bounds are passed on as bounds.

Usually Kd stands for the equilibrium constant for the complex coming apart. One may read the koff as the rate constant with which the complex falls apart. By kon is commonly meant the rate constant with which the complex forms.

Assay [1] deals with T1, Recombinant Human TNF-α/TNFSF1A (human, UniProt P01375 77-233).
T1 construct: vendor reagent is named for Biacore; the neutralization assay says only huTNFα; also called huTNFα
The assay is described as follows: Biacore SPR. A digest of the protocol:
(§1)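 Kinetic constants come from global 1:1 model fitting (Rmax local) at 0.8–100 nM antigen. Flow was 50 μl/min with 5 min association and 10 min dissociation. Capture used goat anti-mouse IgG Fcγ on a CM5 chip in HBS-EP+ at 25 °C.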
In general terms: In SPR one partner is held on a chip, and binding of the other changes the refractive index at the surface.
T1 sequence (P01375 77-233 limits assumed): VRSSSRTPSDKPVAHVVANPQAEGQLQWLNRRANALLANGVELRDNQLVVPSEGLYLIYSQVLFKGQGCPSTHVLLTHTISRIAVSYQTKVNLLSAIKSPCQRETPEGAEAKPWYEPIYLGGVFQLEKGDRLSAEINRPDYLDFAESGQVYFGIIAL

For assay [2], the target named is Recombinant Human IL-13 (human, UniProt P35225 35-146, limits assumed). The assay is described as follows: Biacore SPR. A digest of the protocol:
as §1
Target sequence in this assay (P35225 35-146 limits assumed): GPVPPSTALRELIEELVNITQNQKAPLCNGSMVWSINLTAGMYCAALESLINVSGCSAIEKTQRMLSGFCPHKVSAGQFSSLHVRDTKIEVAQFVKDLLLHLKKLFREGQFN

Assay [3] has as its target T1, Recombinant Human TNF-α/TNFSF1A. In words: cell-based or functional assay.
In assay [4] the target is T2, Recombinant Human TNF-α/TNFSF1A (human, UniProt P01375 77-233).
T2 construct: also called huTNFα
In words: SPR (Biacore).
T2 sequence (P01375 77-233 limits assumed): as the sequence (P01375 77-233 limits assumed) above

For assay [5], the target named is Recombinant Human IL-13 (human, UniProt P35225 35-146, limits assumed). In words: cell-based or functional assay.
Target sequence in this assay (P35225 35-146 limits assumed): as the sequence (P35225 35-146 limits assumed) above

B1: DVD3106 (bispecific antibody, IgG1)
VH: EVQLVQSGAEVKKPGASVKVSCKASGYTFANYGIIWVRQAPGQGLEWMGWINTYTGKPTYAQKFQGRVTMTTDTSTSTAYMELSSLRSEDTAVYYCARKLFTTMDVTDNAMDYWGQGTTVTVSSASTKGPEVQLVQSGAEVKKPGASVKVSCKASGYTFTTYGVSWVRQAPGQGLEWMGEIYPGNYNTYYNEKFRGRVTMTTDTSTSTAYMELRSLRSDDTAVYYCARWRTSYFSDYGYFDYWGQGTTVTVSS
VL: DIQMTQSPSSLSASVGDRVTITCRASQDISQYLNWYQQKPGKAPKLLIYYTSRLQSGVPSRFSGSGSGTDFTLTISSLQPEDFATYFCQQGNTWPPTFGQGTKLEIKRTVAAPSVFIFPPDVVMTQSPLSLPVTLGQPASISCRSSQSLVHSHGNTYLHWYQQRPGQSPRLLIYTVSNRFSGVPDRFSGSGSGTDFTLKISRVEAEDVGVYYCSQSTHVPYTFGGGTKVEIKR
notes: DVD-Ig; wt hIgG1 + kappa constants
Take B1: in assay [1], the Kd came to 0.022 nM, the off-rate (koff) was found to be 8.5e-05 s⁻¹ and the kon turned out to be 3.9e+06 M⁻¹ s⁻¹. Moreover, in the assay with Recombinant Human IL-13 [2], the Kd stood at 0.11 nM, the koff was found to be 6.4e-05 s⁻¹ and the kon was determined as 570000 M⁻¹ s⁻¹. Besides, in assay [3], the “N-Terminal VD huTNFα Neutralization Assay IC50” value is 0.018 nM.

B2: DVD3164 (bispecific antibody, IgG1)
VH: EVQLVQSGAEVKKPGASVKVSCKASGYTFANYGIIWVRQAPGQGLEWMGWINTYTGKPTYAQKFQGRVTMTTDTSTSTAYMELSSLRSEDTAVYYCARKLFTTMDVTDNAMDYWGQGTTVTVSSASTKGPEVQLVQSGAEVKKPGASVKVSCKASGYTFTSYWMHWVRQAPGQGLEWIGNINPKGGSNIYNEKFQGRVTMTRDTSISTAYMELSRLRSDDTAVYYCARLDYFGDSFDLWGQGTTVTVSS
VL: DIQMTQSPSSLSASVGDRVTITCRASQDISQYLNWYQQKPGKAPKLLIYYTSRLQSGVPSRFSGSGSGTDFTLTISSLQPEDFATYFCQQGNTWPPTFGQGTKLEIKRTVAAPDIQMTQSPSSLSASVGDRVTITCRASQGIRNYLNWYQQKPGKAPKLLIYYASNLEVGVPSRFSGSGSGTDYTLTISSLQPEDFATYYCQQDNRFPYTFGGGTKVEIKR
notes: as for B1
In the case of B2, in assay [1], the Kd is 0.016 nM, the koff was determined as 6.5e-05 s⁻¹ and the kon stood at 4e+06 M⁻¹ s⁻¹. In the assay with Recombinant Human IL-13 [2], the Kd was found to be 0.87 nM, the koff came to 4.8e-05 s⁻¹ and the kon was found to be 55000 M⁻¹ s⁻¹. Moreover, the “N-Terminal VD huTNFα Neutralization Assay IC50” value in assay [3] came to 0.021 nM.

B3: DVD3166 (bispecific antibody, IgG1)
VH: EVQLVQSGAEVKKPGASVKVSCKASGYTFANYGIIWVRQAPGQGLEWMGWINTYTGKPTYAQKFQGRVTMTTDTSTSTAYMELSSLRSEDTAVYYCARKLFTTMDVTDNAMDYWGQGTTVTVSSASTKGPEVQLVQSGAEVKKPGASVKVSCKASGYTFTSYWMHWVRQAPGQGLEWIGNINPKGGSNIYNEKFQGRVTMTRDTSISTAYMELSRLRSDDTAVYYCARLDYFGDSFDLWGQGTTVTVSS
VL: DIQMTQSPSSLSASVGDRVTITCRASQDISQYLNWYQQKPGKAPKLLIYYTSRLQSGVPSRFSGSGSGTDFTLTISSLQPEDFATYFCQQGNTWPPTFGQGTKLEIKRTVAAPSVFIFPPDIQMTQSPSSLSASVGDRVTITCRASQGIRNYLNWYQQKPGKAPKLLIYYASNLEVGVPSRFSGSGSGTDYTLTISSLQPEDFATYYCQQDNRFPYTFGGGTKVEIKR
notes: as for B1
B3: in assay [1], the Kd was determined as 0.027 nM, the koff is 0.00013 s⁻¹ and the kon was found to be 4.7e+06 M⁻¹ s⁻¹. Also, in the assay with Recombinant Human IL-13 [2], the Kd stood at 0.18 nM, the koff was determined as 5.1e-05 s⁻¹ and the kon amounted to 280000 M⁻¹ s⁻¹. Moreover, the “N-Terminal VD huTNFα Neutralization Assay IC50” value in assay [3] was 0.016 nM.

B4: DVD3107 (bispecific antibody, IgG1)
VH: EVQLVQSGAEVKKPGASVKVSCKASGYTFANYGIIWVRQAPGQGLEWMGWINTYTGKPTYAQKFQGRVTMTTDTSTSTAYMELSSLRSEDTAVYYCARKLFTTMDVTDNAMDYWGQGTTVTVSSASTKGPSVFPLAPEVQLVQSGAEVKKPGASVKVSCKASGYTFTTYGVSWVRQAPGQGLEWMGEIYPGNYNTYYNEKFRGRVTMTTDTSTSTAYMELRSLRSDDTAVYYCARWRTSYFSDYGYFDYWGQGTTVTVSS
VL: DIQMTQSPSSLSASVGDRVTITCRASQDISQYLNWYQQKPGKAPKLLIYYTSRLQSGVPSRFSGSGSGTDFTLTISSLQPEDFATYFCQQGNTWPPTFGQGTKLEIKRTVAAPDVVMTQSPLSLPVTLGQPASISCRSSQSLVHSHGNTYLHWYQQRPGQSPRLLIYTVSNRFSGVPDRFSGSGSGTDFTLKISRVEAEDVGVYYCSQSTHVPYTFGGGTKVEIKR
notes: as for B1
Take B4: in assay [1], the Kd worked out at 0.053 nM, the koff amounted to 0.00015 s⁻¹ and the kon worked out at 2.8e+06 M⁻¹ s⁻¹. Also, in the assay with Recombinant Human IL-13 [2], the Kd came out at 0.087 nM, the dissociation rate constant (koff) came to 7e-05 s⁻¹ and the kon was 810000 M⁻¹ s⁻¹. Further, the “N-Terminal VD huTNFα Neutralization Assay IC50” value in assay [3] came to 0.015 nM.

B5: DVD3168 (bispecific antibody, human IgG1, kappa)
heavy: not shown
light: DIQMTQSPSSLSASVGDRVTITCRASQGIRNYLNWYQQKPGKAPKLLIYYASNLEVGVPSRFSGSGSGTDYTLTISSLQPEDFATYYCQQDNRFPYTFGGGTKVEIKRGGSGGGGSGDIQMTQSPSSLSASVGDRVTITCRASQDISQYLNWYQQKPGKAPKLLIYYTSRLQSGVPSRFSGSGSGTDFTLTISSLQPEDFATYFCQQGNTWPPTFGQGTKLEIKRTVAAPSVFIFPPSDEQLKSGTASVVCLLNNFYPREAKVQWKVDNALQSGNSQESVTEQDSKDSTYSLSSTLTLSKADYEKHKVYACEVTHQGLSSPVTKSFNRGEC
notes: DVD-Ig: outer AB399 (IL-13), inner AB441 (TNF); linkers GS-H10/GS-L10; also called DVD3168H; DVD3168L
For B5, the binding result in assay [4] is on record as “binds”. The “IL-13 Neutralization Assay IC50” value with Recombinant Human IL-13 [5] came out at 0.081 nM.

B6: DVD3169 (bispecific antibody, human IgG1, kappa)
heavy: not shown
light: DIQMTQSPSSLSASVGDRVTITCRASQGIRNYLNWYQQKPGKAPKLLIYYASNLEVGVPSRFSGSGSGTDYTLTISSLQPEDFATYYCQQDNRFPYTFGGGTKVEIKRTVAAPDIQMTQSPSSLSASVGDRVTITCRASQDISQYLNWYQQKPGKAPKLLIYYTSRLQSGVPSRFSGSGSGTDFTLTISSLQPEDFATYFCQQGNTWPPTFGQGTKLEIKRTVAAPSVFIFPPSDEQLKSGTASVVCLLNNFYPREAKVQWKVDNALQSGNSQESVTEQDSKDSTYSLSSTLTLSKADYEKHKVYACEVTHQGLSSPVTKSFNRGEC
notes: DVD-Ig: outer AB399 (IL-13), inner AB441 (TNF); linkers HG-short/LK-short; also called DVD3169H; DVD3169L
In the case of B6, the binding result in assay [4] is “binds”. Besides, the “IL-13 Neutralization Assay IC50” value in the assay with Recombinant Human IL-13 [5] was 0.089 nM.

B7: DVD3163 (bispecific antibody, IgG1)
VH: EVQLVQSGAEVKKPGASVKVSCKASGYTFANYGIIWVRQAPGQGLEWMGWINTYTGKPTYAQKFQGRVTMTTDTSTSTAYMELSSLRSEDTAVYYCARKLFTTMDVTDNAMDYWGQGTTVTVSSGGGGSGGGGSEVQLVQSGAEVKKPGASVKVSCKASGYTFTSYWMHWVRQAPGQGLEWIGNINPKGGSNIYNEKFQGRVTMTRDTSISTAYMELSRLRSDDTAVYYCARLDYFGDSFDLWGQGTTVTVSS
VL: DIQMTQSPSSLSASVGDRVTITCRASQDISQYLNWYQQKPGKAPKLLIYYTSRLQSGVPSRFSGSGSGTDFTLTISSLQPEDFATYFCQQGNTWPPTFGQGTKLEIKRGGSGGGGSGDIQMTQSPSSLSASVGDRVTITCRASQGIRNYLNWYQQKPGKAPKLLIYYASNLEVGVPSRFSGSGSGTDYTLTISSLQPEDFATYYCQQDNRFPYTFGGGTKVEIKR
notes: as for B1
For B7, in assay [1], the Kd is 0.0039 nM, the koff is 5e-05 s⁻¹ and the kon was 1.3e+07 M⁻¹ s⁻¹. Besides, in the assay with Recombinant Human IL-13 [2], the Kd stood at 0.61 nM, the koff is 8.4e-05 s⁻¹ and the kon came to 140000 M⁻¹ s⁻¹. For the same molecule, the “N-Terminal VD huTNFα Neutralization Assay IC50” value in assay [3] is 0.015 nM.

B8: DVD3169 (bispecific antibody, IgG1)
VH: EVQLVQSGAEVKKPGASVKVSCKASGYTFTSYWMHWVRQAPGQGLEWIGNINPKGGSNIYNEKFQGRVTMTRDTSISTAYMELSRLRSDDTAVYYCARLDYFGDSFDLWGQGTTVTVSSASTKGPEVQLVQSGAEVKKPGASVKVSCKASGYTFANYGIIWVRQAPGQGLEWMGWINTYTGKPTYAQKFQGRVTMTTDTSTSTAYMELSSLRSEDTAVYYCARKLFTTMDVTDNAMDYWGQGTTVTVSS
VL: DIQMTQSPSSLSASVGDRVTITCRASQGIRNYLNWYQQKPGKAPKLLIYYASNLEVGVPSRFSGSGSGTDYTLTISSLQPEDFATYYCQQDNRFPYTFGGGTKVEIKRTVAAPDIQMTQSPSSLSASVGDRVTITCRASQDISQYLNWYQQKPGKAPKLLIYYTSRLQSGVPSRFSGSGSGTDFTLTISSLQPEDFATYFCQQGNTWPPTFGQGTKLEIKR
notes: as for B1
In the case of B8, in assay [1], the Kd is less than 0.0015 nM, the koff was less than 1e-06 s⁻¹ and the kon amounted to 650000 M⁻¹ s⁻¹. Besides, in the assay with Recombinant Human IL-13 [2], the Kd is 0.01 nM, the koff amounted to 2e-05 s⁻¹ and the kon stood at 1.9e+06 M⁻¹ s⁻¹. Moreover, the “C-Terminal VD huTNFα Neutralization Assay IC50” value in assay [3] came to 0.169 nM.

B9: DVD3168 (bispecific antibody, IgG1)
VH: EVQLVQSGAEVKKPGASVKVSCKASGYTFTSYWMHWVRQAPGQGLEWIGNINPKGGSNIYNEKFQGRVTMTRDTSISTAYMELSRLRSDDTAVYYCARLDYFGDSFDLWGQGTTVTVSSGGGGSGGGGSEVQLVQSGAEVKKPGASVKVSCKASGYTFANYGIIWVRQAPGQGLEWMGWINTYTGKPTYAQKFQGRVTMTTDTSTSTAYMELSSLRSEDTAVYYCARKLFTTMDVTDNAMDYWGQGTTVTVSS
VL: DIQMTQSPSSLSASVGDRVTITCRASQGIRNYLNWYQQKPGKAPKLLIYYASNLEVGVPSRFSGSGSGTDYTLTISSLQPEDFATYYCQQDNRFPYTFGGGTKVEIKRGGSGGGGSGDIQMTQSPSSLSASVGDRVTITCRASQDISQYLNWYQQKPGKAPKLLIYYTSRLQSGVPSRFSGSGSGTDFTLTISSLQPEDFATYFCQQGNTWPPTFGQGTKLEIKR
notes: as for B1
Consider B9, for which, in assay [1], the Kd was 0.045 nM, the koff was 3.6e-05 s⁻¹ and the on-rate (kon) came out at 800000 M⁻¹ s⁻¹. Moreover, in the assay with Recombinant Human IL-13 [2], the Kd is 0.064 nM, the koff was determined as 7.4e-05 s⁻¹ and the kon is 1.1e+06 M⁻¹ s⁻¹. Besides, in assay [3], the “C-Terminal VD huTNFα Neutralization Assay IC50” value turned out to be 0.146 nM.
